Test results reported in patent US20090297440A1 (published 2009).

B1: C35 peptide I105 to V113 (peptide)
peptide: ITNSRPPCV
B2: C35 peptide S9 to V17 (peptide)
peptide: SVAPPPEEV
B3: C35 peptide F65 to L73 (peptide)
peptide: FEIEINGQL
B4: C35 peptide G61 to I69 (peptide)
peptide: GTGAFEIEI
B5: C35 peptide T38 to V46 (peptide)
peptide: TYLELASAV
B6: C35 peptide S21 to Y29 (peptide)
peptide: SGVRIVVEY
B7: 1B3 monoclonal antibody (antibody, V domains shown)
VH: EVQLQESGPSLVKPSQTLSLTCSVTGDSITSGYWNWIRKFPGNKLEYVGYISYSGGTYYNPSLKSRISITRDTSKNHYYLQLNSVTTEDTATYYCARGAYYGGAFFPYFDVWGAGTTVTVSS
VL: DVQITQSPSFLAASPGETITINCRASKYISKHLVWYQEKPGETKKLLIYSGSTLQSGLPSRFSGSGSGTDFTLTISSLEPEDFAMYYCQQHNEYPLTFGAGTKLELK
notes: Mouse IgG1 kappa, tested as hybridoma supernatant
B8: 3E10 monoclonal antibody (antibody, V domains shown)
VH: B7 VH
VL: B7 VL
notes: as for B7
B9: hybridoma clone 1B3 antibody (antibody, mouse IgG1, V domains shown)
VH: B7 VH
VL: B7 VL
notes: Murine IgG1 from BCA34.hC35 immunization
B10: hybridoma clone 3E10 antibody (antibody, mouse IgG1, V domains shown)
VH: B7 VH
VL: B7 VL
notes: Murine IgG1 kappa from BCA34.hC35 immunization

The binders below were run against HLA-A*0201 (human, UniProt A*02:01) (assay: fluorescence polarization competition, test peptide at 100 uM against fluorescent-labeled peptide on HLA-A*0201; from Ymax, calibrated with irrelevant (0%) and relevant (100%) competitor).

Question: B1 was tested. Which “% inhibition” value did it give?
Answer: 86.4%

Question: How did the “% inhibition” value turn out when B2 was run?
Answer: 96.9%

Question: How did the “% inhibition” value turn out when B3 was run?
Answer: 74.8%

Question: Which “% inhibition” value does the source give for B4 here?
Answer: 46.5%

Question: With B5 as the binder, how does the “% inhibition” value read?
Answer: 47.3%

Question: For B6, which “% inhibition” value is on record?
Answer: 90.8%

Each binder was assayed against T1, C35 protein, recombinant, bacterially synthesized (human, UniProt Q9BRT3 1-115, limits assumed) (assay: ELISA screen of hybridoma supernatants on plates coated with C35 protein).
T1 construct: also called hC35 protein; bacterially-synthesized C35
T1 sequence: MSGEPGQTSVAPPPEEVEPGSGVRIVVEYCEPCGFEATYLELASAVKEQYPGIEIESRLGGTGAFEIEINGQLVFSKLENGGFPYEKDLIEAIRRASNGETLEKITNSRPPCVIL

Question: Does B7 bind?
Answer: binds

Question: Does B8 bind?
Answer: binds

The binders below were run against T2, purified recombinant C35 protein generated in E. coli (human, UniProt Q9BRT3 1-115, limits assumed) (assay: ELISA, hybridoma supernatant on coated C35 protein).
T2 construct: Generated and purified from E. coli with cleavage of selection tags; also called hC35 protein; soluble C35 protein
T2 sequence: T1 sequence

Question: Does B9 bind?
Answer: binds

Question: Does B10 bind?
Answer: binds
